Assays:
[1] = molecular target: T1, DNA-PK (Homo sapiens, UniProt P78527); experiment: Phosphorylation of mouse p53 by DNA-PK as a function of DNA concentration; assay type: biochemical; conditions: calf thymus DNA 100 μg/ml
T1 construct: DNA-PK was purified from HeLa cells; endogenous in cells; host or cells: HeLa S3 cells; the endogenous enzyme was purified in house by chromatography
Description: To determine whether DNA binding affected p53 phosphorylation by DNA-PK, the rate of phosphorylation of recombinant wild-type mouse p53 was measured as a function of DNA concentration. At low calf thymus DNA concentrations (0 to approximately 10 μg/ml), the initial rate of p53 phosphorylation increased sharply but then decreased as the DNA concentration was further increased. At DNA concentrations of 100 μg/ml, the rate of p53 phosphorylation fell to approximately 25% of the rate at 5 μg/ml. A similar dependence of phosphorylation rate on calf thymus DNA concentration was observed using SV40 TAg or the human Oct-1 POU domain as substrates.

[2] = molecular target: T1, DNA-PK; experiment: Phosphorylation of recombinant protein substrates by purified DNA-PK (SDS-PAGE, phosphorimage); assay type: biochemical
Description: The recombinant protein substrates, a total of six, (at approximately 0.1 mg/ml final concentration) were separately mixed with hsp90 in a phosphorylation reaction with purified DNA-PK (0.6 pg, 0.02 units/assay) without (−) or with (+) 5 μg/ml calf thymus DNA, in the presence of ^32P-ATP for 30 minutes at 30° C. as described by Lees-Miller, et al., Mol. Cell. Biol., 12:5041-5049 (1992). The phosphorylation reactions were stopped with SDS sample buffer and analyzed with SDS-PAGE. The gel was fixed, stained with Coomassie brilliant blue, dried and developed by autoradiographic procedures. The results of which can be seen in FIG. 9.

B1: recombinant wild-type mouse p53: wild-type mouse p53 purified from Sf9 insect cells infected with recombinant virus NPVp53 (protein, UniProt P02340 1-390, looked up)
Cellular tumor antigen p53: MTAMEESQSDISLELPLSQETFSGLWKLLPPEDILPSPHCMDDLLLPQDVEEFFEGPSEALRVSGAPAAQDPVTETPGPVAPAPATPWPLSSFVPSQKTYQGNYGFHLGFLQSGTAKSVMCTYSPPLNKLFCQLAKTCPVQLWVSATPPAGSRVRAMAIYKKSQHMTEVVRRCPHHERCSDGDGLAPPQHLIRVEGNLYPEYLEDRQTFRHSVVVPYEPPEAGSEYTTIHYKYMCNSSCMGGMNRRPILTIITLEDSSGNLLGRDSFEVRVCACPGRDRRTEEENFRKKEVLCPELPPGSAKRALPTCTSASPPQKKKPLDGEYFTLKIRGRKRFEMFRELNEALELKDAHATEESGDSRAHSSYLKTKKGQSTSRHKKTMVKKVGPDSD
rate of p53 phosphorylation relative to the rate at 5 μg/ml DNA [1]: approximately 25%

B2: substrate 1: wild-type recombinant substrate: Ser Gln Glu DNA-PK site and wild-type Oct-1 POU domain; product of p349SUB1 (protein)
chain: MPEESQETFEDLWKLLPGHHHHHHGMSGGMEEPSDLEELEQFAKTFKQRRIKLGFTQGDVGLAMGKLYGNDFSQTTISRFEALNLSFKNMCKLKPLLEKWLNDAENLSSDSSLSSPSALNSPGIEGLSRRRKKRTSIETNIRVALEKSFLENQKPTSEEITMIADQLNMEKEVIRVWFCNRRQKEKRINPQPELAPEDPED
modifications: POUSUB1 artificial DNA-PK substrate
notes: wild-type recombinant substrate: Ser Gln Glu DNA-PK site and wild-type Oct-1 POU domain; product of p349SUB1
increase in phosphate incorporation by addition of double stranded DNA ([2]; 5 μg/ml calf thymus DNA compared to no addition of DNA, 30 minutes at 30° C.): 20 fold
phosphorylation by purified DNA-PK (in words) ([2]; DNA-dependent, compared with hsp90): equal to, if not better than, hsp90

From patent publication US6803203B1, “DNA-PK assay” (Brookhaven Science Associates, priority 1993, dated 2004)
